Assay in all cases: two-hybrid
For assay [1], the target named is NarI-T18 (M. tuberculosis).
The target of another assay is T1, Rv2617c-T18 (M. tuberculosis, UniProt I6XER9 1-146).
T1 sequence: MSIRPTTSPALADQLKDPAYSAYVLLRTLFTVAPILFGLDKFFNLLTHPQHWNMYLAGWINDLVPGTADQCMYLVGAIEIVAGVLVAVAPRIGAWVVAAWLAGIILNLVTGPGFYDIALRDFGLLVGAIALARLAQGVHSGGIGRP
As to conditions: partners not purified.

In the next assay the target is T2, NarK2-T18 (M. tuberculosis, UniProt P9WJY7 1-395).
T2 sequence: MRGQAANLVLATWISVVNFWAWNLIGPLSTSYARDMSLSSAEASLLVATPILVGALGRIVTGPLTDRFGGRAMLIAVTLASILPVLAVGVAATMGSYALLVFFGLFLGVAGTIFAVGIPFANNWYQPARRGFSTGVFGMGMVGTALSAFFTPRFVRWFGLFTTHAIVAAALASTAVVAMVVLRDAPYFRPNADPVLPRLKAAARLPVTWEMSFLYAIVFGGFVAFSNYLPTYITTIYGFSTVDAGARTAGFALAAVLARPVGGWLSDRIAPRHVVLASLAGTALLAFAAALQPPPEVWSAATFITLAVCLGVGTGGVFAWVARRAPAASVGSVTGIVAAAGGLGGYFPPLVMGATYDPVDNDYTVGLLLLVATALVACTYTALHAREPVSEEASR
As to conditions: partners not purified.

As to KdpF-T25 (peptide), the β-galactosidase activity in assay [1] was 720 Miller units.

B1: KdpF-T25 (peptide)
chain: MTTVDNIVGLVIAVALMAFLFAALLFPEKF
Consider B1, for which the β-galactosidase activity with Rv2617c-T18 was 1870 Miller units; with NarK2-T18, 868 Miller units.

For the origin of these results see publication PMC5382158 (Frontiers in Cellular and Infection Microbiology, 2017).
